The record followed here is patent US20110110962A1 (INSERM INSTITUT NATIONAL DE LA SANT ET DE LA RECHERCHE M …, published 2011).

One assay deals with TLR5 of mice (mouse) (UniProt Q9JLF7). Briefly: cell-based or functional assay.
The target in a further assay is TLR5 of mice (mouse, UniProt Q9JLF7 27-859). Briefly: cell-based or functional assay.
Sequence of TLR5 of mice (Q9JLF7 27-859): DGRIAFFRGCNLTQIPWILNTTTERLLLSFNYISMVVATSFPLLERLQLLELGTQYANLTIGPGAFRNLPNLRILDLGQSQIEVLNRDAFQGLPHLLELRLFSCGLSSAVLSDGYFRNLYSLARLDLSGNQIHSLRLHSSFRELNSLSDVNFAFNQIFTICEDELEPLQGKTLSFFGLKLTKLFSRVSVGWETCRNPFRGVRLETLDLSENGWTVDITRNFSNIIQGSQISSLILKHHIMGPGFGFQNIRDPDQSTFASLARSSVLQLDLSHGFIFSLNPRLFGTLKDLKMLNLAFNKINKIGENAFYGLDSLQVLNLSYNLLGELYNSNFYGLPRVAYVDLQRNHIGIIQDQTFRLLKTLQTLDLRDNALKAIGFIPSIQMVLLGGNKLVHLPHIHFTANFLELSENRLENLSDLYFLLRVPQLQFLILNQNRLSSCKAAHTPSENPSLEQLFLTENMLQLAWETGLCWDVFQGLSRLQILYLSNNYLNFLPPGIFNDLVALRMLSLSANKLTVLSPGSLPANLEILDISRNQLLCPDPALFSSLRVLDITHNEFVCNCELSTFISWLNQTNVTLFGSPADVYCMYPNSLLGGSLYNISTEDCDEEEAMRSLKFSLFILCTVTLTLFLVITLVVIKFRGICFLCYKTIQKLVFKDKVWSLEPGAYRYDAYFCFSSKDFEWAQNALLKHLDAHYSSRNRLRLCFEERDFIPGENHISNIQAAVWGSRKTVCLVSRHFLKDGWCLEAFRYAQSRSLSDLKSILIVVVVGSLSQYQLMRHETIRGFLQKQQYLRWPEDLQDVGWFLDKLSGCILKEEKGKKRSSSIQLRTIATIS

Sequence of TLR5 of mice (mouse) (Q9JLF7 27-859): as above

In the assay with TLR5 of mice (mouse), “FliCΔ174-400 flagellin (from UniProt P06175 2-493) (ligand)” yielded a CCL20 mRNA pulmonary levels 2 h after i.n. instillation, against mock-treated animals of 30 fold; a serum CCL20 after 10 µg i.v. of 0.85 ng/mL; a systemic pro-inflammatory effects (serum CCL20 and CXCL2 after i.v. injection), against wild type FliC of 100 fold.

B1: FliCΔ204-292 (ligand)
chain: AQVINTNSLSLLTQNNLNKSQSALGTAIERLSSGLRINSAKDDAAGQAIANRFTANIKGLTQASRNANDGISIAQTTEGALNEINNNLQRVRELAVQSANSTNSQSDLDSIQAEITQRLNEIDRVSGQTQFNGVKVLAQDNTLTIQVGANDGETIDIDLKQINSQTLGLDTLNVQQKYKVSDTAATVTGYADTTIALDNSTFKAALTAAGVTGTASVVKMSYTDNNGKTIDGGLAVKVGDDYYSATQNKDGSISINTTKYTADDGTSKTALNKLGGADGKTEVVSIGGKTYAASKAEGHNFKAQPDLAEAAATTTENPLQKIDAALAQVDTLRSDLGAVQNRFNSAITNLGNTVNNLTSARSRIEDSDYATEVSNMSRAQILQQAGTSVLAQANQVPQNVLSLLR
Turning to B1, the “CCL20 mRNA pulmonary levels 2 h after i.n. instillation, against mock-treated animals” value (shortened to “CCL20 mRNA pulmonary levels 2 h”) in the assay with TLR5 of mice was around 30 fold.

B2: Salmonella enterica Serovar Typhimurium ATCC14028 flagellin FliC (ligand)
chain: AQVINTNSLSLLTQNNLNKSQSALGTAIERLSSGLRINSAKDDAAGQAIANRFTANIKGLTQASRNANDGISIAQTTEGALNEINNNLQRVRELAVQSANSTNSQSDLDSIQAEITQRLNEIDRVSGQTQFNGVKVLAQDNTLTIQVGANDGETIDIDLKQINSQTLGLDTLNVQQKYKVSDTAATVTGYADTTIALDNSTFKASATGLGGTDQKIDGDLKFDDTTGKYYAKVTVTGGTGKDGYYEVSVDKTNGEVTLAGGATSPLTGGLPATATEDVKNVQVANADLTEAKAALTAAGVTGTASVVKMSYTDNNGKTIDGGLAVKVGDDYYSATQNKDGSISINTTKYTADDGTSKTALNKLGGADGKTEVVSIGGKTYAASKAEGHNFKAQPDLAEAAATTTENPLQKIDAALAQVDTLRSDLGAVQNRFNSAITNLGNTVNNLTSARSRIEDSDYATEVSNMSRAQILQQAGTSVLAQANQVPQNVLSLLR
For the molecule B2, the “CCL20 mRNA pulmonary levels 2 h” value with TLR5 of mice is around 30 fold.

B3: FliCΔ191-352 (ligand)
chain: AQVINTNSLSLLTQNNLNKSQSALGTAIERLSSGLRINSAKDDAAGQAIANRFTANIKGLTQASRNANDGISIAQTTEGALNEINNNLQRVRELAVQSANSTNSQSDLDSIQAEITQRLNEIDRVSGQTQFNGVKVLAQDNTLTIQVGANDGETIDIDLKQINSQTLGLDTLNVQQKYKVSDTAATVTGYLELEDGTSKTALNKLGGADGKTEVVSIGGKTYAASKAEGHNFKAQPDLAEAAATTTENPLQKIDAALAQVDTLRSDLGAVQNRFNSAITNLGNTVNNLTSARSRIEDSDYATEVSNMSRAQILQQAGTSVLAQANQVPQSVLSLLR
On to B3, for which the “CCL20 mRNA pulmonary levels 2 h” value with TLR5 of mice is around 30 fold.
